Laboratory results taken from US20070292895.

Legend:
[1] = biological target: T1, coumarin-labeled 10-mer peptide substrate REVNFEVEFR
T1 chain: REVNFEVEFR

[2] = biological target: statine-Val (a peptide BACE-1 inhibitor)

B1: mouse brain BACE-1 (MES membrane preparation from wild-type mice) (protein)
chain: ETDEESEEPGRRGSFVEMVDNLRGKSGQGYYVEMTVGSPPQTLNILVDTGSSNFAVGAAPHPFLHRYYQRQLSSTYRDLRKGVYVPYTQGKWEGELGTDLVSIPHGPNVTVRANIAAITESDKFFINGSNWEGILGLAYAEIARPDDSLEPFFDSLVKQTHIPNIFSLQLCGAGFPLNQTEALASVGGSMIIGGIDHSLYTGSLWYTPIRREWYYEVIIVRVEINGQDLKMDCKEYNYDKSIVDSGTTNLRLPKKVFEAAVKSIKAASSTEKFPDGFWLGEQLVCWQAGTTPWNIFPVISLYLMGEVTNQSFRITILPQQYLRPVEDVATSQDDCYKFAVSQSSTGTVMGAVIMEGFYVVFDRARKRIGFAVSACHVHDEFRTAAVEGPFVTADMEDCGYNIPQTDESTLMTIAYVMAAICALFMLPLCLMVCQWRCLRCLRHQHDDFADDISLLK
[1]
  hydrolysis of substrate (HPLC): hydrolysis was observed to be about 15% of total substrate that had been added in the reaction
[2]
  substrate cleavage (HPLC product peak), brain extract: BACE-1 inhibitor's Stat(V) and Merck-3 led to complete abolition of substrate cleavage
